Assay results from the supplement of paper PMC10567573.

B1: ANKRD40 (parent)
chain: VRIQNPSLRENDFIEIELDRQELT

Variants of: B1
Assay: protein stability index of a GFP-peptide fusion (GPS, HEK-293T) (PSI 1-6); higher = more stable
Settings: c terminus: a fixed tail appended
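Further: lentivirally expressed fusions sorted by FACS into six bins by GFP to DsRed ratio, PSI derived from sequencing read proportions per bin multiplied by bin number.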

Protein stability index, by site and new letter:
F13: T 3.76; V 3.41; K 3.72; H 4.08; S 4.39; I 2.36; Q 4.32; G 4.11; Y 2.42; R 3.43; E 4.6; N 4.18; L 3.42; A 3.81; C 3.15; P 4.53; M 3.21; W 2.44; D 4.61
I3: E 4.63; P 3.77; K 3.44; M 3.61; N 4.28; L 2.75; D 4.9; H 4.17; C 3.22; V 3.06; S 3.84; G 4.05; F 2.44; W 2.4; Q 3.71; R 3.88; A 4.17; T 3.9; Y 3.11
R2: T 3.5; F 1.87; Q 4.3; Y 1.73; N 4.11; H 3.13; D 4.69; K 2.98; A 2.73; S 3.64; I 2.29; L 2.24; M 3.05; E 4.16; W 1.74; C 2.93; P 4.93; V 2.46; G 4.28
Q4: R 2.12; I 2.24; T 2.27; F 1.92; C 2.01; M 2.04; N 2.46; S 2.29; Y 1.98; K 2.09; H 2.11; W 1.61; P 2.63; E 2.31; A 2.16; G 2.36; V 2.01; L 1.89; D 2.88
I14: G 3.87; R 4.34; Y 3.73; E 4.92; L 3; M 3.34; A 4; C 3.43; H 4.66; W 2.49; S 4.42; N 4.85; D 5.22; F 2.87; K 4.47; T 3.88; Q 4.31; P 4.27; V 3.1
P6: Y 1.73; V 2.02; M 2.18; W 1.77; R 2.69; N 2.67; G 2.28; Q 2.6; S 2.16; K 2.67; D 2.38; A 2.75; H 2.65; T 2.02; E 2.93; L 2.17; F 1.66; C 2.06; I 1.52
D12: M 3.11; T 1.66; S 1.83; Y 1.06; I 2.08; W 2.37; L 2.01; C 2.46; N 2.64; A 1.81; G 1.68; H 2.11; F 2.14; Q 2.1; K 2.61; R 2.97; V 2.2; P 2.58; E 2.29
E17: D 2.7; F 1.93; R 2.14; M 1.81; A 2.47; K 2.27; Q 1.96; I 1.97; N 2.66; W 1.85; G 3.22; H 2.62; P 3.44; V 1.35; S 2.15; Y 2.22; T 1.86; C 1.65; L 1.98
R9: K 2.62; L 2.48; S 2.41; W 2.14; T 2.54; E 2.74; N 1.93; G 2.32; Y 1.78; M 1.97; Q 2.16; A 1.92; F 1.51; H 1.81; C 2.33; D 2.23; V 2.03; I 1.68; P 2.63
E15: C 1.87; A 2.38; D 2.95; M 1.95; G 3.02; H 2.94; F 1.82; R 2.13; I 2.45; P 3.49; S 2.02; Q 2.18; V 1.89; T 2.27; W 1.97; N 3.29; Y 2.04; K 2.47; L 2.25
L8: V 2.41; P 3.13; Q 3.11; N 2.43; H 2.93; A 2.77; D 2.76; S 3.24; I 3.35; E 3.34; W 1.98; C 2.36; F 2.27; R 2.47; T 3.42; K 2.96; G 2.08; Y 2.15; M 2.42
E10: Q 2.37; A 2.27; W 1.91; D 2.31; N 2.15; P 2.5; H 2.38; K 2.08; Y 1.51; V 2.05; G 1.85; L 1.53; R 1.84; T 2.28; C 1.73; M 1.74; F 1.92; S 2.51; I 2
L18: P 4.35; A 4.2; F 2.12; I 2.01; N 4.72; D 4.8; C 3.61; K 4.62; M 3.3; H 4.48; G 4.38; E 5.04
V1: S 4.3; L 2.71; E 4.77; Q 4.27; F 2.58; T 3.96; D 5.15; C 3.51; M 2.79; I 2.03; K 3.97; G 4.27; Y 3.41; W 2.99; R 3.63; N 4.46; A 3.91; H 4.04; P 4.53
N11: D 2.08; Q 2.54; G 2.32; C 1.69; W 1.41; S 2.58; I 1.94; E 1.79; P 2.73; L 1.7; Y 1.71; M 1.99; K 2.94; R 2.63; V 1.97; F 1.69; T 2.47; A 2.18; H 2.39
I16: M 3.49; V 3.49; Q 4.68; H 4.59; G 4.55; Y 3.15; R 4.75; E 4.8; P 4.67; A 4.19; F 2.83; T 4.44; W 2.89; N 5.11; L 2.65; S 4.47; C 4.09; K 4.69; D 5
N5: D 2.48; C 2.45; L 3.56; G 1.9; M 2.73; P 2.08; R 2.29; A 1.86; T 2.16; Y 1.36; K 2.74; H 1.73; Q 2.07; E 3.08; F 2.28; I 2.43; S 1.74; W 2.23
S7: I 2.56; Q 2.82; G 2.26; T 3.04; L 2.09; V 2.81; A 2.76; M 2.01; D 2.91; K 2.81; N 2.79; P 3.72; R 2.39; W 2.2; F 1.45; Y 2.16; E 2.8; H 2.13; C 2.33
